For eleven molecules, He/Con_1a results are on record in patent publication US20180155451A1 (published 2018).

B1: GpH7-A5/GpH7-B3 variant L328_15Y/GpL16-k0 (antibody, human IgG1, kappa)
heavy 1: not shown
heavy 2: not shown
light: DIVMTQSPLSLPVTPGEPASISCQASESLVHSNRNTYLHWYLQKPGQSPQLLIYKVSNRFSGVPDRFSGSGSGTDFTLKISRVEAEDVGVYYCSQNTHVPPTFGQGTKVEIERTVAAPSVFIFPPSDEQLKSGTASVVCLLNNFYPREAKVQWKVDNALQSGNSQESVTEQDSKDSTYSLSSTLTLSKADYEKHKVYACEVTHQGLSSPVTKSFNRGEC
notes: heterodimerized antibody, mutation in one H chain only; also called L328_15Y He Ab
B2: GpH7-A5/GpH7-B3 variant S267_06M/GpL16-k0 (antibody, human IgG1, kappa)
heavy 1: not shown
heavy 2: not shown
light: DIVMTQSPLSLPVTPGEPASISCQASESLVHSNRNTYLHWYLQKPGQSPQLLIYKVSNRFSGVPDRFSGSGSGTDFTLKISRVEAEDVGVYYCSQNTHVPPTFGQGTKVEIERTVAAPSVFIFPPSDEQLKSGTASVVCLLNNFYPREAKVQWKVDNALQSGNSQESVTEQDSKDSTYSLSSTLTLSKADYEKHKVYACEVTHQGLSSPVTKSFNRGEC
notes: heterodimerized antibody, mutation in one H chain only; also called S267_06M He Ab
B3: GpH7-A5/GpH7-B3 variant S324_09D/GpL16-k0 (antibody, human IgG1, kappa)
heavy 1: not shown
heavy 2: not shown
light: DIVMTQSPLSLPVTPGEPASISCQASESLVHSNRNTYLHWYLQKPGQSPQLLIYKVSNRFSGVPDRFSGSGSGTDFTLKISRVEAEDVGVYYCSQNTHVPPTFGQGTKVEIERTVAAPSVFIFPPSDEQLKSGTASVVCLLNNFYPREAKVQWKVDNALQSGNSQESVTEQDSKDSTYSLSSTLTLSKADYEKHKVYACEVTHQGLSSPVTKSFNRGEC
notes: heterodimerized antibody, mutation in one H chain only; also called S324_09D He Ab
B4: GpH7-A5/GpH7-B3 variant S267_19Q/GpL16-k0 (antibody, human IgG1, kappa)
heavy 1: not shown
heavy 2: not shown
light: DIVMTQSPLSLPVTPGEPASISCQASESLVHSNRNTYLHWYLQKPGQSPQLLIYKVSNRFSGVPDRFSGSGSGTDFTLKISRVEAEDVGVYYCSQNTHVPPTFGQGTKVEIERTVAAPSVFIFPPSDEQLKSGTASVVCLLNNFYPREAKVQWKVDNALQSGNSQESVTEQDSKDSTYSLSSTLTLSKADYEKHKVYACEVTHQGLSSPVTKSFNRGEC
notes: heterodimerized antibody, mutation in one H chain only; also called S267_19Q He Ab
B5: GpH7-A5/GpH7-B3 variant P271_10E/GpL16-k0 (antibody, human IgG1, kappa)
heavy 1: not shown
heavy 2: not shown
light: DIVMTQSPLSLPVTPGEPASISCQASESLVHSNRNTYLHWYLQKPGQSPQLLIYKVSNRFSGVPDRFSGSGSGTDFTLKISRVEAEDVGVYYCSQNTHVPPTFGQGTKVEIERTVAAPSVFIFPPSDEQLKSGTASVVCLLNNFYPREAKVQWKVDNALQSGNSQESVTEQDSKDSTYSLSSTLTLSKADYEKHKVYACEVTHQGLSSPVTKSFNRGEC
notes: heterodimerized antibody, mutation in one H chain only; also called P271_10E He Ab
B6: GpH7-A5/GpH7-B3 variant T335_01G/GpL16-k0 (antibody, human IgG1, kappa)
heavy 1: not shown
heavy 2: not shown
light: DIVMTQSPLSLPVTPGEPASISCQASESLVHSNRNTYLHWYLQKPGQSPQLLIYKVSNRFSGVPDRFSGSGSGTDFTLKISRVEAEDVGVYYCSQNTHVPPTFGQGTKVEIERTVAAPSVFIFPPSDEQLKSGTASVVCLLNNFYPREAKVQWKVDNALQSGNSQESVTEQDSKDSTYSLSSTLTLSKADYEKHKVYACEVTHQGLSSPVTKSFNRGEC
notes: heterodimerized antibody, mutation in one H chain only; also called T335_01G He Ab
B7: GpH7-A5/GpH7-B3 variant Q295_10E/GpL16-k0 (antibody, human IgG1, kappa)
heavy 1: not shown
heavy 2: not shown
light: DIVMTQSPLSLPVTPGEPASISCQASESLVHSNRNTYLHWYLQKPGQSPQLLIYKVSNRFSGVPDRFSGSGSGTDFTLKISRVEAEDVGVYYCSQNTHVPPTFGQGTKVEIERTVAAPSVFIFPPSDEQLKSGTASVVCLLNNFYPREAKVQWKVDNALQSGNSQESVTEQDSKDSTYSLSSTLTLSKADYEKHKVYACEVTHQGLSSPVTKSFNRGEC
notes: heterodimerized antibody, mutation in one H chain only; also called Q295_10E He Ab
B8: GpH7-A5/GpH7-B3 variant S337_11K/GpL16-k0 (antibody, human IgG1, kappa)
heavy 1: not shown
heavy 2: not shown
light: DIVMTQSPLSLPVTPGEPASISCQASESLVHSNRNTYLHWYLQKPGQSPQLLIYKVSNRFSGVPDRFSGSGSGTDFTLKISRVEAEDVGVYYCSQNTHVPPTFGQGTKVEIERTVAAPSVFIFPPSDEQLKSGTASVVCLLNNFYPREAKVQWKVDNALQSGNSQESVTEQDSKDSTYSLSSTLTLSKADYEKHKVYACEVTHQGLSSPVTKSFNRGEC
notes: heterodimerized antibody, mutation in one H chain only; also called S337_11K He Ab
B9: GpH7-A5/GpH7-B3 variant S298_09D/GpL16-k0 (antibody, human IgG1, kappa)
heavy 1: not shown
heavy 2: not shown
light: DIVMTQSPLSLPVTPGEPASISCQASESLVHSNRNTYLHWYLQKPGQSPQLLIYKVSNRFSGVPDRFSGSGSGTDFTLKISRVEAEDVGVYYCSQNTHVPPTFGQGTKVEIERTVAAPSVFIFPPSDEQLKSGTASVVCLLNNFYPREAKVQWKVDNALQSGNSQESVTEQDSKDSTYSLSSTLTLSKADYEKHKVYACEVTHQGLSSPVTKSFNRGEC
notes: heterodimerized antibody, mutation in one H chain only; also called S298_09D He Ab
B10: GpH7-A5/GpH7-B3 variant S337_16H/GpL16-k0 (antibody, human IgG1, kappa)
heavy 1: not shown
heavy 2: not shown
light: DIVMTQSPLSLPVTPGEPASISCQASESLVHSNRNTYLHWYLQKPGQSPQLLIYKVSNRFSGVPDRFSGSGSGTDFTLKISRVEAEDVGVYYCSQNTHVPPTFGQGTKVEIERTVAAPSVFIFPPSDEQLKSGTASVVCLLNNFYPREAKVQWKVDNALQSGNSQESVTEQDSKDSTYSLSSTLTLSKADYEKHKVYACEVTHQGLSSPVTKSFNRGEC
notes: heterodimerized antibody, mutation in one H chain only; also called S337_16H He Ab
B11: GpH7-A5/GpH7-B3 variant S239_10E/GpL16-k0 (antibody, human IgG1, kappa)
heavy 1: not shown
heavy 2: not shown
light: DIVMTQSPLSLPVTPGEPASISCQASESLVHSNRNTYLHWYLQKPGQSPQLLIYKVSNRFSGVPDRFSGSGSGTDFTLKISRVEAEDVGVYYCSQNTHVPPTFGQGTKVEIERTVAAPSVFIFPPSDEQLKSGTASVVCLLNNFYPREAKVQWKVDNALQSGNSQESVTEQDSKDSTYSLSSTLTLSKADYEKHKVYACEVTHQGLSSPVTKSFNRGEC
notes: heterodimerized antibody, mutation in one H chain only; also called S239_10E He Ab

In this assay the target is T1, FcγRIa extracellular domain with C-terminal His tag (human, UniProt P12314 16-292).
T1 construct: extracellular domain; soluble analyte in Biacore; also called FcgRI; CD64
T1 sequence (P12314 16-292): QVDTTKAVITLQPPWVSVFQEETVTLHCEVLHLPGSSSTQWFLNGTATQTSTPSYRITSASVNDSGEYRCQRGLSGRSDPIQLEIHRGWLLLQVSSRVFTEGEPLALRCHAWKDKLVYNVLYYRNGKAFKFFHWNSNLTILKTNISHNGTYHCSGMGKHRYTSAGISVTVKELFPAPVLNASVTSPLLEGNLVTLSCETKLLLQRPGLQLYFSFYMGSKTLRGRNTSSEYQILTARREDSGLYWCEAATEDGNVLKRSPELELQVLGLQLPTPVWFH
Put plainly: SPR (Biacore), relative FcγRIa binding, GpH7-A5/GpH7-B3/GpL16-k0 (HeCon Ab) = 100.
On to B1, for which the He/Con_1a is 102 % of control.

Regarding B2, the He/Con_1a was 106 % of control.

With B3, the He/Con_1a is 104 % of control.

Take B4: the He/Con_1a is 102 % of control.

As for B5, the He/Con_1a was 103 % of control.

B6: the He/Con_1a is 104 % of control.

B7: the He/Con_1a was 103 % of control.

Turning to B8, the He/Con_1a was 104 % of control.

B9: the He/Con_1a was 106 % of control.

In the case of B10, the He/Con_1a is 105 % of control.

On to B11, for which the He/Con_1a was 105 % of control.
